In article PMC9981700 (2023):

Molecular target: T1, Notch2 (Leu26–Gln530), recombinant protein (UniProt Q04721 26-530)
T1 chain: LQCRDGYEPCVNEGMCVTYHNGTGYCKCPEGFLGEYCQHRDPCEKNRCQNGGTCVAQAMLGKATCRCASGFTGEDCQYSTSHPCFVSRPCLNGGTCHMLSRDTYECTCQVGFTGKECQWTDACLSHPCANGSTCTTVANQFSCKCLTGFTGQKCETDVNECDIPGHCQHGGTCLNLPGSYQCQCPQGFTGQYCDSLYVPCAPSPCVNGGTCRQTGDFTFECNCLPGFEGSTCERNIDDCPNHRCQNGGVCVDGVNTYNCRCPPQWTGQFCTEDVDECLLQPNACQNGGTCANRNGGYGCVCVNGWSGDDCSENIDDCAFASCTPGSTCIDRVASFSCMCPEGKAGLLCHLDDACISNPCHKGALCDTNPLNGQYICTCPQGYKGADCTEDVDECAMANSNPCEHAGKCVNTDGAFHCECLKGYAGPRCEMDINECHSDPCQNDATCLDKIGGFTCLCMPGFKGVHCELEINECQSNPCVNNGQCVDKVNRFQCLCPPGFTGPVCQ
Assay: BLI

B1: Fibulin2 (Ala28–Leu1184), recombinant protein (natural protein)
chain: APRQDCTGVECPPLENCIEEALEPGACCATCVQQGCACEGYQYYDCLQGGFVRGRVPAGQSYFVDFGSTECSCPPGGGKISCQFMLCPELPPNCIEAVVVADSCPQCGQVGCVHAGHKYAAGHTVHLPPCRACHCPDAGGELICYQLPGCHGNFSDAEEGDPERHYEDPYSYDQEVAEVEAATALGGEVQAGAVQAGAGGPPAALGGGSQPLSTIQAPPWPAVLPRPTAAAALGPPAPVQAKARRVTEDSEEEEEEEEEREEMAVTEQLAAGGHRGLDGLPTTAPAGPSLPIQEERAEAGARAEAGARPEENLILDAQATSRSTGPEGVTHAPSLGKAALVPTQAVPGSPRDPVKPSPHNILSTSLPDAAWIPPTREVPRKPQVLPHSHVEEDTDPNSVHSIPRSSPEGSTKDLIETCCAAGQQWAIDNDECLEIPESGTEDNVCRTAQRHCCVSYLQEKSCMAGVLGAKEGETCGAEDNDSCGISLYKQCCDCCGLGLRVRAEGQSCESNPNLGYPCNHVMLSCCEGEEPLIVPEVRRPPEPAAAPRRVSEAEMAGREALSLGTEAELPNSLPGDDQDECLLLPGELCQHLCINTVGSYHCACFPGFSLQDDGRTCRPEGHPPQPEAPQEPALKSEFSQVASNTIPLPLPQPNTCKDNGPCKQVCSTVGGSAICSCFPGYAIMADGVSCEDINECVTDLHTCSRGEHCVNTLGSFHCYKALTCEPGYALKDGECEDVDECAMGTHTCQPGFLCQNTKGSFYCQARQRCMDGFLQDPEGNCVDINECTSLSEPCRPGFSCINTVGSYTCQRNPLICARGYHASDDGTKCVDVNECETGVHRCGEGQVCHNLPGSYRCDCKAGFQRDAFGRGCIDVNECWASPGRLCQHTCENTLGSYRCSCASGFLLAADGKRCEDVNECEAQRCSQECANIYGSYQCYCRQGYQLAEDGHTCTDIDECAQGAGILCTFRCLNVPGSYQCACPEQGYTMTANGRSCKDVDECALGTHNCSEAETCHNIQGSFRCLRFECPPNYVQVSKTKCERTTCHDFLECQNSPARITHYQLNFQTGLLVPAHIFRIGPAPAFTGDTIALNIIKGNEEGYFGTRRLNAYTGVVYLQRAVLEPRDFALDVEMKLWRQGSVTTFLAKMHIFFTTFAL
Kd: 1.22 nM
